In general, Kd refers to the concentration at which binding is half-saturated.

Experiment [1] deals with His-SND1 (16-339), SN1/2 domains, wild type (human) (UniProt Q7KZF4). Put plainly: GST titration pull-down: GST-MTDH (386-407) on glutathione resin, SND1 (SN1/2) at 10, 3, 1, 0.5, 0.25, 0.12 (the sheet prints mM, paragraph 254 says µM), SDS-PAGE, Coomassie blue.
In experiment [2] the target is TC-FLASH-SND1 (tetracysteine peptide fused to SND1 (16-339), labelled with FlAsH) (human) (UniProt Q7KZF4). The experiment in a line: FRET, 0.2 µM CFP-MTDH titrated with TC-FLASH-SND1 (0.25-8 µM).
Experiment [3] concerns the target T1, HA-SND1, full-length human, wild type (human, UniProt Q7KZF4 1-910).
T1 construct: Full-length, HA-tagged; Expressed in HEK293T cells, tested in lysate; also called HA-tagged SND1; WT HA-SND1
T1 sequence: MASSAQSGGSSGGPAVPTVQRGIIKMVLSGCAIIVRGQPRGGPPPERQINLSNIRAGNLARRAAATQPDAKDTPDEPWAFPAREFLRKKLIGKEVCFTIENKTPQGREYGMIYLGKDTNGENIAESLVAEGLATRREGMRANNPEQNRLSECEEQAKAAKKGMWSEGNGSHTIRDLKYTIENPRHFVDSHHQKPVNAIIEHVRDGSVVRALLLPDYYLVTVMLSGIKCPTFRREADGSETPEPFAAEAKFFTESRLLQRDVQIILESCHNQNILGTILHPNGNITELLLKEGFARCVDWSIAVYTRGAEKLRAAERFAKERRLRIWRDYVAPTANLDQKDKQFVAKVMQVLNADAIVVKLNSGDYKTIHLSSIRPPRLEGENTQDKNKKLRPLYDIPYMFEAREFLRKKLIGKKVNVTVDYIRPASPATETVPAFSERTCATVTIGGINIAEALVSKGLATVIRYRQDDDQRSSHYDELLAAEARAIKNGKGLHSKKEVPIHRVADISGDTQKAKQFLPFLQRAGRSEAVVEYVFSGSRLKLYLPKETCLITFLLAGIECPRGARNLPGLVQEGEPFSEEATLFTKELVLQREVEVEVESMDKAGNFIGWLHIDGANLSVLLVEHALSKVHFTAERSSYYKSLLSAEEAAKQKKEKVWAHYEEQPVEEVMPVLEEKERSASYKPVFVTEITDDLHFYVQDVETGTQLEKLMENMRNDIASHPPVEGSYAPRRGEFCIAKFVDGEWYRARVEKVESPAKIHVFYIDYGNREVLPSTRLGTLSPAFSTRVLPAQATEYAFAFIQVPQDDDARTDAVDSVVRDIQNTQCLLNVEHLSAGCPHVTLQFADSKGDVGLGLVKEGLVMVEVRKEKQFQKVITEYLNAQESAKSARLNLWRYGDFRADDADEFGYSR
The experiment in a line: anti-HA co-IP (as printed on the sheet) from HEK293T lysate, western blot. From the text:
The proteins bound to GS4B were examined on SDS-PAGE and visualized by Coomassie blue staining. […] The bound proteins were examined as in (FIG. 22A). For both (FIG. 22A) and (FIG. 22B), experiments were repeated three times; representative results are shown. The normalized percentage of binding was averaged from three experiments; mean±SEM was shown below the data. (FIG. 22C) HEK293T cells were transfected with human HA-SND1, WT Myc-MTDH or Myc-MTDH with indicated single point mutation. […] (FIG. 22D) HEK293T cells were transfected with human Myc-MTDH, WT HA-SND1 or mutant HA-SND1 with indicated single point mutations or deletions. […]
Immunoprecipitation and western blot: For in vivo immunoprecipitation (IP) experiments, cultured cells were washed in cold PBS and lysed in lysis buffer (20 mM Tris pH 7.4, 0.15 M NaCl, 1 mM EDTA, 1 mM EGTA, 1% Tx-100, 0.0025 M Na2P2O7, 1 mM β-glycerolphosphate, 1 mM Na3VO4, and 1 mM NaF) with an EDTA-free protease inhibitor mixture (Roche Applied Science) and PMSF. Cell lysates were then incubated on ice for 10 min, centrifuged, and precleared by incubating with protein A/G beads (Santa Cruz Biotechnology) for 1 h at 4° C. For IP bead preparation, 30 μl of protein A/G beads were incubated with 5 μg of antibodies for 2 h at 4° C. […]
(In general: Immunoblotting shows a protein as a band on a membrane.)

Experiment [4] deals with human AGO2 (ectopically expressed in HEK293T cells) (human, UniProt Q9UKV8 1-859). The experiment in a line: co-IP (anti-Myc) from HEK293T lysates, western blot.
human AGO2 (ectopically expressed in HEK293T cells), sequence (Q9UKV8 whole entry): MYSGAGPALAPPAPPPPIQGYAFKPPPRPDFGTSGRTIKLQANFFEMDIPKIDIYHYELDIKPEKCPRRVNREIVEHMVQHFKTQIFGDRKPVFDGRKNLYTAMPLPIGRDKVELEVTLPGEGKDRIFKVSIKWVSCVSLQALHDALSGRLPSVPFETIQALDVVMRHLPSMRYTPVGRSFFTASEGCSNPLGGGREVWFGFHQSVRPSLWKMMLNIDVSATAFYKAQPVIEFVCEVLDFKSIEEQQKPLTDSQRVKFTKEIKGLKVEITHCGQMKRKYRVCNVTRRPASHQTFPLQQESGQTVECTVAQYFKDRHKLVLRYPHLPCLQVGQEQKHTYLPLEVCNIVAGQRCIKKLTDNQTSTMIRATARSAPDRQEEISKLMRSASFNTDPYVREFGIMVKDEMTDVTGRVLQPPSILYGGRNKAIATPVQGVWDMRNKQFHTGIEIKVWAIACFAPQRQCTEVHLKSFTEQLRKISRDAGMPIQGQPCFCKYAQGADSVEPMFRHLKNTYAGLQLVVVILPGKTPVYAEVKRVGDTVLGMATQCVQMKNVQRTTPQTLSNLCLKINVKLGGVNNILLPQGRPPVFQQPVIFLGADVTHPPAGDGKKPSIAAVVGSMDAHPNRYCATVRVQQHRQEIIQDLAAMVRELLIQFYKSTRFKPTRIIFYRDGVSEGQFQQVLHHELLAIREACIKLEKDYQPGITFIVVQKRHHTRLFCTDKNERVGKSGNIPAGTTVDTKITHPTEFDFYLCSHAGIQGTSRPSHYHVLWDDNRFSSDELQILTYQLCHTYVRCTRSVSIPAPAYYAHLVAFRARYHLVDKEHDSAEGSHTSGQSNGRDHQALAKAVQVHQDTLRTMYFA
The target in experiment [5] is T1, HA-SND1, full-length human, wild type. Described as above.

Where no end group is shown, it is not given here. CFP = cyan fluorescent protein

Regarding PAE (397-399)→SQ, the Estimated Binding Affinity in experiment [1] was 0.8 µM.
Regarding {CFP}-SSADPNSDWNAPAEEWGNWVDE (peptide, not shown: large carriers, also: fused to CFP, whose letters are not given here) [CFP-MTDH fusion protein], the dissociation constant Kd in experiment [2] came to 900 nM.

B1: Myc-MTDH E399R, full-length human (other)
chain: MAARSWQDELAQQAEEGSARLREMLSVGLGFLRTELGLDLGLEPKRYPGWVILVGTGALGLLLLFLLGYGWAAACAGSRKKRRSPPRKREEAAAVPAAAPDDLALLKNLRSEEQKKKNRKKLSEKPKPNGRTVEVAEGEAVRTPQSVTAKQPPEIDKKNEKSKKNKKKSKSDAKAVQNSSRHDGKEVDEGAWETKISHREKRQQRKRDKVLTDSGSLDSTIPGIENTITVTTEQLTTASFPVGSKKNKGDSHLNVQVSNFKSGKGDSTLQVSSGLNENLTVNGGGWNEKSVKLSSQISAGEEKWNSVSPASAGKRKAEPSAWSQDTGDANTNGKDWGRSWSDRSIFSGIGSTAEPVSQSTTSDYQWDVSRNQPYIDDEWSGLNGLSSADPNSDWNAPAREWGNWVDEERASLLKSQEPIPDDQKVSDDDKEKGEGALPTGKSKKKKKKKKKQGEDNSTAQDTEELEKEIREDLPVNTSKTRPKQEKAFSLKTISTSDPAEVLVKNSQPIKTLPPATSTEPSVILSKSDSDKSSSQVPPILQETDKSKSNTKQNSVPPSQTKSETSWESPKQIKKKKKARRET
notes: Full-length, Myc-tagged; also called SPM21
As to B1, the binding result in experiment [3] is listed as “binds”.

B2: Myc-MTDH TPM2 (E399R, E400R, W401D), full-length human (other)
chain: MAARSWQDELAQQAEEGSARLREMLSVGLGFLRTELGLDLGLEPKRYPGWVILVGTGALGLLLLFLLGYGWAAACAGSRKKRRSPPRKREEAAAVPAAAPDDLALLKNLRSEEQKKKNRKKLSEKPKPNGRTVEVAEGEAVRTPQSVTAKQPPEIDKKNEKSKKNKKKSKSDAKAVQNSSRHDGKEVDEGAWETKISHREKRQQRKRDKVLTDSGSLDSTIPGIENTITVTTEQLTTASFPVGSKKNKGDSHLNVQVSNFKSGKGDSTLQVSSGLNENLTVNGGGWNEKSVKLSSQISAGEEKWNSVSPASAGKRKAEPSAWSQDTGDANTNGKDWGRSWSDRSIFSGIGSTAEPVSQSTTSDYQWDVSRNQPYIDDEWSGLNGLSSADPNSDWNAPARRDGNWVDEERASLLKSQEPIPDDQKVSDDDKEKGEGALPTGKSKKKKKKKKKQGEDNSTAQDTEELEKEIREDLPVNTSKTRPKQEKAFSLKTISTSDPAEVLVKNSQPIKTLPPATSTEPSVILSKSDSDKSSSQVPPILQETDKSKSNTKQNSVPPSQTKSETSWESPKQIKKKKKARRET
notes: Full-length, Myc-tagged; also called TPM2 MTDH
Regarding B2, the binding result in experiment [4] is recorded as “binds”; in experiment [5], “no binding”.

B3: Myc-MTDH E400R, full-length human (other)
chain: MAARSWQDELAQQAEEGSARLREMLSVGLGFLRTELGLDLGLEPKRYPGWVILVGTGALGLLLLFLLGYGWAAACAGSRKKRRSPPRKREEAAAVPAAAPDDLALLKNLRSEEQKKKNRKKLSEKPKPNGRTVEVAEGEAVRTPQSVTAKQPPEIDKKNEKSKKNKKKSKSDAKAVQNSSRHDGKEVDEGAWETKISHREKRQQRKRDKVLTDSGSLDSTIPGIENTITVTTEQLTTASFPVGSKKNKGDSHLNVQVSNFKSGKGDSTLQVSSGLNENLTVNGGGWNEKSVKLSSQISAGEEKWNSVSPASAGKRKAEPSAWSQDTGDANTNGKDWGRSWSDRSIFSGIGSTAEPVSQSTTSDYQWDVSRNQPYIDDEWSGLNGLSSADPNSDWNAPAERWGNWVDEERASLLKSQEPIPDDQKVSDDDKEKGEGALPTGKSKKKKKKKKKQGEDNSTAQDTEELEKEIREDLPVNTSKTRPKQEKAFSLKTISTSDPAEVLVKNSQPIKTLPPATSTEPSVILSKSDSDKSSSQVPPILQETDKSKSNTKQNSVPPSQTKSETSWESPKQIKKKKKARRET
notes: Full-length, Myc-tagged; also called SPM22
As to B3, the binding result in experiment [3] was “binds”.

B4: Myc-MTDH TPM1 (D389R, D393R, W394D), full-length human (other)
chain: MAARSWQDELAQQAEEGSARLREMLSVGLGFLRTELGLDLGLEPKRYPGWVILVGTGALGLLLLFLLGYGWAAACAGSRKKRRSPPRKREEAAAVPAAAPDDLALLKNLRSEEQKKKNRKKLSEKPKPNGRTVEVAEGEAVRTPQSVTAKQPPEIDKKNEKSKKNKKKSKSDAKAVQNSSRHDGKEVDEGAWETKISHREKRQQRKRDKVLTDSGSLDSTIPGIENTITVTTEQLTTASFPVGSKKNKGDSHLNVQVSNFKSGKGDSTLQVSSGLNENLTVNGGGWNEKSVKLSSQISAGEEKWNSVSPASAGKRKAEPSAWSQDTGDANTNGKDWGRSWSDRSIFSGIGSTAEPVSQSTTSDYQWDVSRNQPYIDDEWSGLNGLSSARPNSRDNAPAEEWGNWVDEERASLLKSQEPIPDDQKVSDDDKEKGEGALPTGKSKKKKKKKKKQGEDNSTAQDTEELEKEIREDLPVNTSKTRPKQEKAFSLKTISTSDPAEVLVKNSQPIKTLPPATSTEPSVILSKSDSDKSSSQVPPILQETDKSKSNTKQNSVPPSQTKSETSWESPKQIKKKKKARRET
notes: Full-length, Myc-tagged; also called TPM1 MTDH
Turning to B4, the values for the binding result in experiment [4] and in experiment [5] were “binds” and “no binding”, respectively.

Values taken from patent publication US20190336574A1 (TRUSTEES OF PRINCETON UNIVERSITY, published 2019).
